One assay has as its target HLA-C*14:02. Put plainly: IEDB peptide-MHC binding, purified MHC/direct/fluorescence; filed as Kd, often an IC50 or EC50 that approximates it; ≥ and ≤ were set here for values at or beyond the usual limits of such assays.
Assay [1] concerns the target HLA-B*08:01. Put plainly: IEDB peptide-MHC binding, purified MHC/competitive/fluorescence; filed as Kd, often an IC50 or EC50 that approximates it; ≥ and ≤ were set here for values at or beyond the usual limits of such assays. Conditions: source organism: Bacillus anthracis str. A0488.
The next assay deals with HLA-B*07:02. Nature of the assay: IEDB peptide-MHC binding, purified MHC/direct/fluorescence; filed as Kd, often an IC50 or EC50 that approximates it; ≥ and ≤ were set here for values at or beyond the usual limits of such assays.
The next assay has as its target HLA-A*24:03. The assay is described as above.
The target in another assay is HLA-B*40:01. The assay is described as above.
The target in another assay is HLA-A*01:01. The assay is described as above.
Assay [2] addresses HLA-A*02:01. The assay is described as above.
For another assay, the target named is HLA-B*27:05. Described as above.
The target in assay [3] is HLA-A*26:01. The assay is described as above.
The next assay addresses HLA-A*30:01. The assay is described as above.
For another assay, the target named is HLA-A*11:01. The description is as above.
In assay [4] the target is HLA-B*08:01. The description is as above.
In assay [5] the target is HLA-B*58:01. The description is as above.
The target of assay [6] is HLA-A*69:01. The assay is described as above.
The next assay addresses HLA-A*03:01. The description is as above.
A further assay concerns the target HLA-C*03:03. The description is as above. The conditions noted are these: source organism: Bacillus mycoides KBAB4.
The next assay addresses HLA-C*06:02. Described as above.
The next assay concerns the target HLA-C*12:03. Described as above.
The next assay deals with HLA-B*08:02. Described as above. Conditions: source organism: dengue virus type 4.
Another assay addresses HLA-C*07:02. Described as above. Conditions: source organism: Dengue virus 2 Jamaica/1409/1983.
Assay [7] deals with HLA-B*15:01. The description is as above.
The next assay concerns the target HLA-A*31:01. Described as above.
In another assay the target is HLA-B*46:01. Nature of the assay: IEDB peptide-MHC binding, purified MHC/competitive/fluorescence; filed as Kd, often an IC50 or EC50 that approximates it; ≥ and ≤ were set here for values at or beyond the usual limits of such assays.
In assay [8] the target is HLA-A*02:01. The description is as above.
In a further assay the target is HLA-A*02:03. Nature of the assay: IEDB peptide-MHC binding, purified MHC/direct/fluorescence; filed as Kd, often an IC50 or EC50 that approximates it; ≥ and ≤ were set here for values at or beyond the usual limits of such assays. Conditions: source organism: Zaire ebolavirus.
A further assay addresses HLA-A*02:11. The description is as above. The conditions noted are these: source organism: Zaire ebolavirus.
A further assay addresses HLA-A*02:16. The description is as above. Conditions: source organism: Zaire ebolavirus.
Another assay deals with HLA-A*02:12. Described as above. The conditions noted are these: source organism: Zaire ebolavirus.
For the next assay, the target named is HLA-A*68:02. Described as above. The conditions noted are these: source organism: Zaire ebolavirus.
For another assay, the target named is HLA-A*02:19. The description is as above. The conditions noted are these: source organism: Zaire ebolavirus.
A further assay deals with HLA-B*27:03. Put plainly: IEDB peptide-MHC binding, purified MHC/competitive/fluorescence; filed as Kd, often an IC50 or EC50 that approximates it; ≥ and ≤ were set here for values at or beyond the usual limits of such assays. Conditions: source organism: Zaire ebolavirus.
For another assay, the target named is HLA-B*51:01. Described as above. The conditions noted are these: source organism: Zaire ebolavirus.
The target of a further assay is HLA-B*18:01. The assay is described as above. Conditions: source organism: Zaire ebolavirus.
Assay [9] has as its target HLA-B*15:01. The description is as above. Conditions: source organism: Zaire ebolavirus.
The target in assay [10] is HLA-A*26:01. Described as above. The conditions noted are these: source organism: Zaire ebolavirus.
The target in another assay is HLA-B*39:01. The assay is described as above. The conditions noted are these: source organism: Zaire ebolavirus.
Assay [11] concerns the target HLA-B*58:01. Described as above. The conditions noted are these: source organism: Zaire ebolavirus.
The target of assay [12] is HLA-A*69:01. The description is as above. The conditions noted are these: source organism: Zaire ebolavirus.
The mark [13] stands for this setting: source organism: Pseudomonas aeruginosa UCBPP-PA14.
Setting [14] is: source organism: Pseudomonas aeruginosa.
Setting [15] is: source organism: Bacillus mycoides KBAB4.
The mark [16] stands for this setting: source organism: Giardia lamblia ATCC 50803.
The mark [17] stands for this setting: source organism: West Nile virus.
The mark [18] stands for this setting: source organism: Zaire ebolavirus.

Consider AANMYIYPL, for which the equilibrium dissociation constant (Kd) with HLA-C*14:02 (source organism: Bacillus anthracis str. A0488) worked out at 0.057 µM; with HLA-B*08:01 [1], 1.1 µM.

Take AYGSRFHEW: the dissociation constant Kd is at least 20 µM with HLA-B*07:02 (setting [13]); 0.00184 µM with HLA-A*24:03 (setting [14]); at least 20 µM with HLA-B*40:01 (setting [13]); at least 20 µM with HLA-A*01:01 (setting [13]); at least 20 µM with HLA-A*02:01 [2] (setting [13]); at least 20 µM in the assay with HLA-B*27:05 (setting [13]). The Kd with HLA-A*26:01 [3] (setting [13]) was at least 20 µM; in the assay with HLA-A*30:01 (setting [14]), at least 31.6 µM; with HLA-A*11:01 (setting [13]), at least 20 µM; with HLA-B*08:01 [4] (setting [13]) it was at least 20 µM; with HLA-B*58:01 [5] (setting [14]), 4.7 µM; in the assay with HLA-A*69:01 [6] (setting [13]) it was at least 20 µM. The same sequence came in with a Kd in the assay with HLA-A*03:01 (setting [13]) of at least 20 µM.

For the sequence AYVTWIALM, the Kd with HLA-C*14:02 (source organism: Mus musculus) stood at 0.027 µM. This lies in the double-digit nanomolar range.

For FAFCRITSF, the Kd is 0.002 µM with HLA-C*03:03, 1.08 µM with HLA-C*06:02 (setting [15]) and at most 0.001 µM with HLA-C*12:03 (setting [15]).

Regarding FRKKRLTIM, the Kd with HLA-B*08:02 was determined as 4.43 µM; with HLA-C*07:02 it was 0.446 µM; with HLA-C*06:02 (source organism: Dengue virus 2 Jamaica/1409/1983) it was 0.018 µM.

For KQYNVTQAF, the Kd is 5.33 µM with HLA-B*40:01 (source organism: SARS-CoV1); at least 51.3 µM in the assay with HLA-A*02:01 [2] (source organism: SARS-CoV1); 0.538 µM with HLA-B*27:05 (source organism: SARS-CoV1); 0.0871 µM in the assay with HLA-B*15:01 [7] (source organism: SARS-CoV1); 0.449 µM with HLA-A*31:01 (source organism: SARS-CoV1); 0.002 µM in the assay with HLA-C*14:02 (source organism: SARS-CoV1). For the same sequence, the Kd in the assay with HLA-A*11:01 (source organism: SARS-CoV1) is at least 28.4 µM; in the assay with HLA-B*58:01 [5] (source organism: SARS-CoV1) it was 1.01 µM; with HLA-A*03:01 (source organism: SARS-CoV1) it was 6.35 µM; with HLA-B*46:01 (source organism: SARS-CoV1) it was 0.0652 µM.

As to KVGVYKMHK, the Kd with HLA-B*07:02 (setting [16]), with HLA-A*24:03 (setting [16]), with HLA-B*40:01 (setting [16]), in the assay with HLA-A*01:01 (setting [16]), with HLA-A*02:01 [2] (setting [16]) and with HLA-B*27:05 (setting [16]) was at least 20 µM each time. Also, the Kd was at least 20 µM with HLA-B*15:01 [7] (setting [16]); 0.0552 µM in the assay with HLA-A*31:01 (setting [16]); at least 20 µM with HLA-A*26:01 [3] (setting [16]); 0.0152 µM in the assay with HLA-A*30:01 (setting [16]); 0.0334 µM in the assay with HLA-A*11:01 (setting [16]); at least 20 µM in the assay with HLA-B*08:01 [4] (setting [16]). Moreover, the figures for the Kd with HLA-B*58:01 [5] (setting [16]), in the assay with HLA-A*69:01 [6] (setting [16]) and with HLA-A*03:01 (setting [16]) were at least 20 µM, at least 20 µM and 0.163 µM, respectively.

Consider SLYAVTTAV, for which the Kd with HLA-C*12:03 (setting [17]) was 0.027 µM; in the assay with HLA-A*02:01 [8] (setting [17]), 0.00137 µM.

As for VLMKQIPIW, the Kd in the assay with HLA-A*02:03, in the assay with HLA-A*02:11, with HLA-A*02:16, with HLA-A*02:12, with HLA-A*68:02 and with HLA-A*02:19 was at least 20 µM throughout. Further, the Kd with HLA-A*03:01 (setting [18]), in the assay with HLA-B*27:03, in the assay with HLA-B*51:01, with HLA-A*02:01 [8] (setting [18]), with HLA-B*18:01 and in the assay with HLA-B*15:01 [9] was at least 20 µM in each case. Further, the Kd was at least 20 µM with HLA-A*26:01 [10]; at least 20 µM in the assay with HLA-B*39:01; 0.0013 µM with HLA-B*58:01 [11]; at least 20 µM with HLA-B*46:01 (setting [18]); at least 20 µM with HLA-A*69:01 [12].

The record behind these values is the Immune Epitope Database (IEDB).
